Tests used:
Assay in all cases: cell-based or functional assay
[1] = biological target: HIV-1 Env of AC10.29 (HIV-1)
[2] = biological target: HIV-1 Env of KER2018.11 (HIV-1)
[3] = biological target: HIV-1 Env of Q769.d22 (HIV-1)
[4] = biological target: HIV-1 Env of TH976.17 (HIV-1)
[5] = biological target: HIV-1 Env of 191821.E6.1 (HIV-1)
[6] = biological target: HIV-1 Env of ZM233.6 (HIV-1)
[7] = biological target: HIV-1 Env of CAP210.E8 (HIV-1)
[8] = biological target: HIV-1 Env of ZM197.7 (HIV-1)
[9] = biological target: HIV-1 Env of Q168.a2 (HIV-1)
[10] = biological target: HIV-1 Env of ZM109.4 (HIV-1)
[11] = biological target: HIV-1 Env of Q259.d2.17 (HIV-1)
[12] = biological target: HIV-1 Env of ZM53.12 (HIV-1)
[13] = biological target: HIV-1 Env of RW020.2 (HIV-1)
[14] = biological target: HIV-1 Env of CM244.ec1 (HIV-1)
[15] = biological target: HIV-1 Env of RHPA.7 (HIV-1)
[16] = biological target: HIV-1 Env of ZM214.15 (HIV-1)
[17] = biological target: HIV-1 Env of CAP256.SU (HIV-1)
[18] = biological target: HIV-1 Env of DU156.12 (HIV-1)
[19] = biological target: HIV-1 Env of CAAN.A2 (HIV-1)
[20] = biological target: HIV-1 Env of WITO.33 (HIV-1)
[21] = biological target: HIV-1 Env of Q23.17 (HIV-1)
[22] = biological target: HIV-1 Env of Q842.d12 (HIV-1)
[23] = biological target: HIV-1 Env of CAP244.D3 (HIV-1)
[24] = biological target: HIV-1 Env of PVO.04 (HIV-1)
[25] = biological target: HIV-1 Env of TRO.11 (HIV-1)
[26] = biological target: HIV-1 Env of SC422.8 (HIV-1)
[27] = biological target: HIV-1 Env of UG037.8 (HIV-1)
[28] = biological target: HIV-1 Env of 96ZM651.02 (HIV-1)
[29] = biological target: HIV-1 Env of Q461.e2 (HIV-1)
[30] = biological target: HIV-1 Env of 6535.3 (HIV-1)
[31] = biological target: HIV-1 Env of ZM249.1 (HIV-1)
[32] = biological target: HIV-1 Env of CAP45.G3 (HIV-1)
[33] = biological target: HIV-1 Env of MB201 (HIV-1)
[34] = biological target: HIV-1 Env of KER2008.12 (HIV-1)
[35] = biological target: HIV-1 Env of BG505.w6m (HIV-1)
[36] = biological target: HIV-1 Env of 3016.V5.c36 (HIV-1)
[37] = biological target: HIV-1 Env of CAP256.PI (HIV-1)
[38] = biological target: HIV-1 Env of C1080.c3 (HIV-1)
[39] = biological target: HIV-1 Env of 0260.v5.c36 (HIV-1)
[40] = biological target: HIV-1 Env of TRJO.58 (HIV-1)
[41] = biological target: HIV-1 Env of 6405.v4.c34 (HIV-1)
[42] = biological target: HIV-1 Env of ZM135.10a (HIV-1)
[43] = biological target: HIV-1 Env of THRO.18 (HIV-1)
[44] = biological target: HIV-1 Env of CNE3 (HIV-1)
[45] = biological target: HIV-1 Env of DU172.17 (HIV-1)
[46] = biological target: HIV-1 Env of QH0692.42 (HIV-1)
[47] = biological target: HIV-1 Env of DU422.01 (HIV-1)
[48] = biological target: HIV-1 Env of MB539.2B7 (HIV-1)
[49] = biological target: HIV-1 Env of REJO.67 (HIV-1)

CAP256-VRC26.23 (antibody)
IC50 [1]: > 50 µg/mL | IC50 [2]: 10 µg/mL | IC50 [3]: > 50 µg/mL | IC50 (neutralization, TZM-bl) [4]: > 50 µg/mL | IC50 [5]: > 50 µg/mL | IC50 [6]: > 50 µg/mL | IC50 [7]: 0.019 µg/mL | IC50 [8]: > 50 µg/mL | IC50 [9]: > 50 µg/mL | IC50 [10]: > 50 µg/mL | IC50 [11]: > 50 µg/mL | IC50 [12]: 0.028 µg/mL | IC50 [13]: > 50 µg/mL | IC50 [14]: > 50 µg/mL | IC50 [15]: > 50 µg/mL | IC50 [16]: > 50 µg/mL | IC50 [17]: 0.019 µg/mL | IC50 [18]: > 50 µg/mL | IC50 [19]: > 50 µg/mL | IC50 [20]: > 50 µg/mL | IC50 [21]: > 50 µg/mL | IC50 [22]: > 50 µg/mL | IC50 [23]: > 50 µg/mL | IC50 [24]: > 50 µg/mL | IC50 [25]: > 50 µg/mL | IC50 [26]: > 50 µg/mL | IC50 [27]: > 50 µg/mL | IC50 [28]: > 50 µg/mL | IC50 [29]: > 50 µg/mL | IC50 [30]: > 50 µg/mL | IC50 [31]: > 50 µg/mL | IC50 [32]: > 50 µg/mL | IC50 [33]: > 50 µg/mL | IC50 [34]: > 50 µg/mL | IC50 [35]: > 50 µg/mL | IC50 [36]: > 50 µg/mL | IC50 [37]: > 50 µg/mL | IC50 [38]: > 50 µg/mL | IC50 [39]: > 50 µg/mL | IC50 [40]: > 50 µg/mL | IC50 [41]: > 50 µg/mL | IC50 [42]: > 50 µg/mL | IC50 [43]: > 50 µg/mL | IC50 (neutralization, TZM-bl) [44]: > 50 µg/mL | IC50 [45]: > 50 µg/mL | IC50 [46]: > 50 µg/mL | IC50 [47]: > 50 µg/mL | IC50 [48]: > 50 µg/mL | IC50 [49]: > 50 µg/mL

CAP256-VRC26.13 (antibody)
IC50 [1]: > 50 µg/mL | IC50 [2]: > 50 µg/mL | IC50 [3]: > 50 µg/mL | IC50 [4]: > 50 µg/mL | IC50 [5]: > 50 µg/mL | IC50 [6]: > 50 µg/mL | IC50 [7]: 0.094 µg/mL | IC50 [8]: > 50 µg/mL | IC50 [9]: > 50 µg/mL | IC50 [10]: > 50 µg/mL | IC50 [11]: > 50 µg/mL | IC50 [12]: 0.039 µg/mL | IC50 [13]: > 50 µg/mL | IC50 [14]: > 50 µg/mL | IC50 [15]: > 50 µg/mL | IC50 [16]: > 50 µg/mL | IC50 [17]: 0.019 µg/mL | IC50 [18]: > 50 µg/mL | IC50 [19]: > 50 µg/mL | IC50 [20]: > 50 µg/mL | IC50 [21]: > 50 µg/mL | IC50 [22]: > 50 µg/mL | IC50 [23]: > 50 µg/mL | IC50 [24]: > 50 µg/mL | IC50 [25]: > 50 µg/mL | IC50 [26]: > 50 µg/mL | IC50 [27]: > 50 µg/mL | IC50 [28]: > 50 µg/mL | IC50 [29]: > 50 µg/mL | IC50 [30]: > 50 µg/mL | IC50 [31]: > 50 µg/mL | IC50 [32]: > 50 µg/mL | IC50 [33]: > 50 µg/mL | IC50 [34]: > 50 µg/mL | IC50 [35]: > 50 µg/mL | IC50 [36]: 3.74 µg/mL | IC50 [37]: > 50 µg/mL | IC50 [38]: > 50 µg/mL | IC50 [39]: > 50 µg/mL | IC50 [40]: > 50 µg/mL | IC50 [41]: > 50 µg/mL | IC50 [42]: > 50 µg/mL | IC50 [43]: > 50 µg/mL | IC50 [44]: > 50 µg/mL | IC50 [45]: > 50 µg/mL | IC50 [46]: > 50 µg/mL | IC50 [47]: > 50 µg/mL | IC50 [48]: > 50 µg/mL | IC50 [49]: > 50 µg/mL

Reference: patent publication US20200199204A1
